According to paper PMC3069497:

Experiments:
[1] = target: bovine rhodopsin, photoactivated (Rho*) (bovine) (UniProt P02699)
[2] = target: T1, Peptide C (bovine)
T1 sequence (peptide): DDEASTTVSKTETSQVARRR

[3] = target: bovine rhodopsin, photoactivated (Rho*) (bovine) (UniProt P02699); remark: listed apart in the source

UniProt P02699, sequence (P02699 whole entry): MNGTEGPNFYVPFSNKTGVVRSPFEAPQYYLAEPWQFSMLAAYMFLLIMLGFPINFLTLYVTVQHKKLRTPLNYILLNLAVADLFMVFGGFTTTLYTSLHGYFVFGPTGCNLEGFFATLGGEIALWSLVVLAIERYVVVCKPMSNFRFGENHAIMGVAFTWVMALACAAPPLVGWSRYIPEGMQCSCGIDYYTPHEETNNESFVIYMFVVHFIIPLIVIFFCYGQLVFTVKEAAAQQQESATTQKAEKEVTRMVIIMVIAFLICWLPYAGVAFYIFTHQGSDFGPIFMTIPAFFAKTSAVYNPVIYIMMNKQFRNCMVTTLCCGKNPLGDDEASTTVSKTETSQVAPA

B1: bovine GRK1 C-terminally truncated at residue 535 and tagged with hexahistidine (GRK1_(535)H6), wild type (enzyme)
chain: MDFGSLETVVANSAFIAARGSFDASSGPASRDRKYLARLKLPPLSKCEALRESLDLGFEGMCLEQPIGKRLFQQFLRTHEQHGPALQLWKDIEDYDTADDALRPQKAQALRAAYLEPQAQLFCSFLDAETVARARAGAGDGLFQPLLRAVLAHLGQAPFQEFLDSLYFLRFLQWKWLEAQPMGEDWFLDFRVLGRGGFGEVFACQMKATGKLYACKKLNKKRLKKRKGYQGAMVEKKILAKVHSRFIVSLAYAFETKTDLCLVMTIMNGGDIRYHIYNVDEDNPGFQEPRAIFYTAQIVSGLEHLHQRNIIYRDLKPENVLLDDDGNVRISDLGLAVELKAGQTKTKGYAGTPGFMAPELLLGEEYDFSVDYFALGVTLYEMIAARGPFRARGEKVENKELKQRVLEQAVTYPDKFSPASKDFCEALLQKDPEKRLGFRDGSCDGLRTHPLFRDISWRQLEAGMLTPPFVPDSRTVYAKNIQDVGAFSTVKGVAFEKADTEFFQEFASGTCPIPWQEEMIETGVFGDLNVWRPDG
**Q.** What does the source list for B1?
**A.** KM of ROS (Rho*) phosphorylation [1]: 3.4 µM; KM of peptide C phosphorylation [2]: 320 µM; decrease of the magnitude of the fluorescence change of Meta II decay [3]: 35%

B2: GRK1_(535)H6 E7A (enzyme)
chain: MDFGSLATVVANSAFIAARGSFDASSGPASRDRKYLARLKLPPLSKCEALRESLDLGFEGMCLEQPIGKRLFQQFLRTHEQHGPALQLWKDIEDYDTADDALRPQKAQALRAAYLEPQAQLFCSFLDAETVARARAGAGDGLFQPLLRAVLAHLGQAPFQEFLDSLYFLRFLQWKWLEAQPMGEDWFLDFRVLGRGGFGEVFACQMKATGKLYACKKLNKKRLKKRKGYQGAMVEKKILAKVHSRFIVSLAYAFETKTDLCLVMTIMNGGDIRYHIYNVDEDNPGFQEPRAIFYTAQIVSGLEHLHQRNIIYRDLKPENVLLDDDGNVRISDLGLAVELKAGQTKTKGYAGTPGFMAPELLLGEEYDFSVDYFALGVTLYEMIAARGPFRARGEKVENKELKQRVLEQAVTYPDKFSPASKDFCEALLQKDPEKRLGFRDGSCDGLRTHPLFRDISWRQLEAGMLTPPFVPDSRTVYAKNIQDVGAFSTVKGVAFEKADTEFFQEFASGTCPIPWQEEMIETGVFGDLNVWRPDG
**Q.** How did the KM of ROS (Rho*) phosphorylation [1] turn out when B2 was run?
**A.** 13 µM

**Q.** And the KM of peptide C phosphorylation [2]?
**A.** 410 µM

B3: GRK1_(535)H6 F15A (enzyme)
chain: MDFGSLETVVANSAAIAARGSFDASSGPASRDRKYLARLKLPPLSKCEALRESLDLGFEGMCLEQPIGKRLFQQFLRTHEQHGPALQLWKDIEDYDTADDALRPQKAQALRAAYLEPQAQLFCSFLDAETVARARAGAGDGLFQPLLRAVLAHLGQAPFQEFLDSLYFLRFLQWKWLEAQPMGEDWFLDFRVLGRGGFGEVFACQMKATGKLYACKKLNKKRLKKRKGYQGAMVEKKILAKVHSRFIVSLAYAFETKTDLCLVMTIMNGGDIRYHIYNVDEDNPGFQEPRAIFYTAQIVSGLEHLHQRNIIYRDLKPENVLLDDDGNVRISDLGLAVELKAGQTKTKGYAGTPGFMAPELLLGEEYDFSVDYFALGVTLYEMIAARGPFRARGEKVENKELKQRVLEQAVTYPDKFSPASKDFCEALLQKDPEKRLGFRDGSCDGLRTHPLFRDISWRQLEAGMLTPPFVPDSRTVYAKNIQDVGAFSTVKGVAFEKADTEFFQEFASGTCPIPWQEEMIETGVFGDLNVWRPDG
**Q.** Which results are given for B3?
**A.** KM of ROS (Rho*) phosphorylation [1]: 11 µM; KM of peptide C phosphorylation [2]: 350 µM

B4: GRK1_(535)H6 V10A (enzyme)
chain: MDFGSLETVAANSAFIAARGSFDASSGPASRDRKYLARLKLPPLSKCEALRESLDLGFEGMCLEQPIGKRLFQQFLRTHEQHGPALQLWKDIEDYDTADDALRPQKAQALRAAYLEPQAQLFCSFLDAETVARARAGAGDGLFQPLLRAVLAHLGQAPFQEFLDSLYFLRFLQWKWLEAQPMGEDWFLDFRVLGRGGFGEVFACQMKATGKLYACKKLNKKRLKKRKGYQGAMVEKKILAKVHSRFIVSLAYAFETKTDLCLVMTIMNGGDIRYHIYNVDEDNPGFQEPRAIFYTAQIVSGLEHLHQRNIIYRDLKPENVLLDDDGNVRISDLGLAVELKAGQTKTKGYAGTPGFMAPELLLGEEYDFSVDYFALGVTLYEMIAARGPFRARGEKVENKELKQRVLEQAVTYPDKFSPASKDFCEALLQKDPEKRLGFRDGSCDGLRTHPLFRDISWRQLEAGMLTPPFVPDSRTVYAKNIQDVGAFSTVKGVAFEKADTEFFQEFASGTCPIPWQEEMIETGVFGDLNVWRPDG
**Q.** Which KM of ROS (Rho*) phosphorylation [1] does the source give for B4 here?
**A.** 21 µM

**Q.** What about the KM of peptide C phosphorylation [2] of the same binder?
**A.** 390 µM

B5: GRK1_(535)H6 A18E (enzyme)
chain: MDFGSLETVVANSAFIAERGSFDASSGPASRDRKYLARLKLPPLSKCEALRESLDLGFEGMCLEQPIGKRLFQQFLRTHEQHGPALQLWKDIEDYDTADDALRPQKAQALRAAYLEPQAQLFCSFLDAETVARARAGAGDGLFQPLLRAVLAHLGQAPFQEFLDSLYFLRFLQWKWLEAQPMGEDWFLDFRVLGRGGFGEVFACQMKATGKLYACKKLNKKRLKKRKGYQGAMVEKKILAKVHSRFIVSLAYAFETKTDLCLVMTIMNGGDIRYHIYNVDEDNPGFQEPRAIFYTAQIVSGLEHLHQRNIIYRDLKPENVLLDDDGNVRISDLGLAVELKAGQTKTKGYAGTPGFMAPELLLGEEYDFSVDYFALGVTLYEMIAARGPFRARGEKVENKELKQRVLEQAVTYPDKFSPASKDFCEALLQKDPEKRLGFRDGSCDGLRTHPLFRDISWRQLEAGMLTPPFVPDSRTVYAKNIQDVGAFSTVKGVAFEKADTEFFQEFASGTCPIPWQEEMIETGVFGDLNVWRPDG
**Q.** For B5, which KM of ROS (Rho*) phosphorylation [1] is on record?
**A.** 6.1 µM

**Q.** What about the KM of peptide C phosphorylation [2] of the same binder?
**A.** 410 µM

B6: GRK1_(535)H6 A11E (enzyme)
chain: MDFGSLETVVENSAFIAARGSFDASSGPASRDRKYLARLKLPPLSKCEALRESLDLGFEGMCLEQPIGKRLFQQFLRTHEQHGPALQLWKDIEDYDTADDALRPQKAQALRAAYLEPQAQLFCSFLDAETVARARAGAGDGLFQPLLRAVLAHLGQAPFQEFLDSLYFLRFLQWKWLEAQPMGEDWFLDFRVLGRGGFGEVFACQMKATGKLYACKKLNKKRLKKRKGYQGAMVEKKILAKVHSRFIVSLAYAFETKTDLCLVMTIMNGGDIRYHIYNVDEDNPGFQEPRAIFYTAQIVSGLEHLHQRNIIYRDLKPENVLLDDDGNVRISDLGLAVELKAGQTKTKGYAGTPGFMAPELLLGEEYDFSVDYFALGVTLYEMIAARGPFRARGEKVENKELKQRVLEQAVTYPDKFSPASKDFCEALLQKDPEKRLGFRDGSCDGLRTHPLFRDISWRQLEAGMLTPPFVPDSRTVYAKNIQDVGAFSTVKGVAFEKADTEFFQEFASGTCPIPWQEEMIETGVFGDLNVWRPDG
**Q.** Which results are given for B6?
**A.** KM of ROS (Rho*) phosphorylation [1]: 8.8 µM; KM of peptide C phosphorylation [2]: 310 µM

B7: GRK1_(535)H6 V9A (enzyme)
chain: MDFGSLETAVANSAFIAARGSFDASSGPASRDRKYLARLKLPPLSKCEALRESLDLGFEGMCLEQPIGKRLFQQFLRTHEQHGPALQLWKDIEDYDTADDALRPQKAQALRAAYLEPQAQLFCSFLDAETVARARAGAGDGLFQPLLRAVLAHLGQAPFQEFLDSLYFLRFLQWKWLEAQPMGEDWFLDFRVLGRGGFGEVFACQMKATGKLYACKKLNKKRLKKRKGYQGAMVEKKILAKVHSRFIVSLAYAFETKTDLCLVMTIMNGGDIRYHIYNVDEDNPGFQEPRAIFYTAQIVSGLEHLHQRNIIYRDLKPENVLLDDDGNVRISDLGLAVELKAGQTKTKGYAGTPGFMAPELLLGEEYDFSVDYFALGVTLYEMIAARGPFRARGEKVENKELKQRVLEQAVTYPDKFSPASKDFCEALLQKDPEKRLGFRDGSCDGLRTHPLFRDISWRQLEAGMLTPPFVPDSRTVYAKNIQDVGAFSTVKGVAFEKADTEFFQEFASGTCPIPWQEEMIETGVFGDLNVWRPDG
**Q.** Which KM of ROS (Rho*) phosphorylation [1] does the source give for B7 here?
**A.** 18 µM

**Q.** What about the KM of peptide C phosphorylation [2] of the same binder?
**A.** 350 µM

B8: GRK1_(535)H6 N12A (enzyme)
chain: MDFGSLETVVAASAFIAARGSFDASSGPASRDRKYLARLKLPPLSKCEALRESLDLGFEGMCLEQPIGKRLFQQFLRTHEQHGPALQLWKDIEDYDTADDALRPQKAQALRAAYLEPQAQLFCSFLDAETVARARAGAGDGLFQPLLRAVLAHLGQAPFQEFLDSLYFLRFLQWKWLEAQPMGEDWFLDFRVLGRGGFGEVFACQMKATGKLYACKKLNKKRLKKRKGYQGAMVEKKILAKVHSRFIVSLAYAFETKTDLCLVMTIMNGGDIRYHIYNVDEDNPGFQEPRAIFYTAQIVSGLEHLHQRNIIYRDLKPENVLLDDDGNVRISDLGLAVELKAGQTKTKGYAGTPGFMAPELLLGEEYDFSVDYFALGVTLYEMIAARGPFRARGEKVENKELKQRVLEQAVTYPDKFSPASKDFCEALLQKDPEKRLGFRDGSCDGLRTHPLFRDISWRQLEAGMLTPPFVPDSRTVYAKNIQDVGAFSTVKGVAFEKADTEFFQEFASGTCPIPWQEEMIETGVFGDLNVWRPDG
**Q.** How did the KM of ROS (Rho*) phosphorylation [1] turn out when B8 was run?
**A.** 20 µM

**Q.** And the KM of peptide C phosphorylation [2]?
**A.** 500 µM

B9: GRK1_(535)H6 I16A (enzyme)
chain: MDFGSLETVVANSAFAAARGSFDASSGPASRDRKYLARLKLPPLSKCEALRESLDLGFEGMCLEQPIGKRLFQQFLRTHEQHGPALQLWKDIEDYDTADDALRPQKAQALRAAYLEPQAQLFCSFLDAETVARARAGAGDGLFQPLLRAVLAHLGQAPFQEFLDSLYFLRFLQWKWLEAQPMGEDWFLDFRVLGRGGFGEVFACQMKATGKLYACKKLNKKRLKKRKGYQGAMVEKKILAKVHSRFIVSLAYAFETKTDLCLVMTIMNGGDIRYHIYNVDEDNPGFQEPRAIFYTAQIVSGLEHLHQRNIIYRDLKPENVLLDDDGNVRISDLGLAVELKAGQTKTKGYAGTPGFMAPELLLGEEYDFSVDYFALGVTLYEMIAARGPFRARGEKVENKELKQRVLEQAVTYPDKFSPASKDFCEALLQKDPEKRLGFRDGSCDGLRTHPLFRDISWRQLEAGMLTPPFVPDSRTVYAKNIQDVGAFSTVKGVAFEKADTEFFQEFASGTCPIPWQEEMIETGVFGDLNVWRPDG
**Q.** For B9, which KM of ROS (Rho*) phosphorylation [1] is on record?
**A.** 9.5 µM

**Q.** What about the KM of peptide C phosphorylation [2] of the same binder?
**A.** 220 µM

B10: GRK1_(535)H6 L6A (enzyme)
chain: MDFGSAETVVANSAFIAARGSFDASSGPASRDRKYLARLKLPPLSKCEALRESLDLGFEGMCLEQPIGKRLFQQFLRTHEQHGPALQLWKDIEDYDTADDALRPQKAQALRAAYLEPQAQLFCSFLDAETVARARAGAGDGLFQPLLRAVLAHLGQAPFQEFLDSLYFLRFLQWKWLEAQPMGEDWFLDFRVLGRGGFGEVFACQMKATGKLYACKKLNKKRLKKRKGYQGAMVEKKILAKVHSRFIVSLAYAFETKTDLCLVMTIMNGGDIRYHIYNVDEDNPGFQEPRAIFYTAQIVSGLEHLHQRNIIYRDLKPENVLLDDDGNVRISDLGLAVELKAGQTKTKGYAGTPGFMAPELLLGEEYDFSVDYFALGVTLYEMIAARGPFRARGEKVENKELKQRVLEQAVTYPDKFSPASKDFCEALLQKDPEKRLGFRDGSCDGLRTHPLFRDISWRQLEAGMLTPPFVPDSRTVYAKNIQDVGAFSTVKGVAFEKADTEFFQEFASGTCPIPWQEEMIETGVFGDLNVWRPDG
**Q.** B10 was tested. Which KM of ROS (Rho*) phosphorylation [1] did it give?
**A.** 12 µM

**Q.** What about the KM of peptide C phosphorylation [2] of the same binder?
**A.** 280 µM
